The test deals with T1, beta-catenin (endogenous, HUVEC) (human (HUVEC), UniProt P35222 2-781).
T1 construct: also called β-catenin
T1 sequence (looked up): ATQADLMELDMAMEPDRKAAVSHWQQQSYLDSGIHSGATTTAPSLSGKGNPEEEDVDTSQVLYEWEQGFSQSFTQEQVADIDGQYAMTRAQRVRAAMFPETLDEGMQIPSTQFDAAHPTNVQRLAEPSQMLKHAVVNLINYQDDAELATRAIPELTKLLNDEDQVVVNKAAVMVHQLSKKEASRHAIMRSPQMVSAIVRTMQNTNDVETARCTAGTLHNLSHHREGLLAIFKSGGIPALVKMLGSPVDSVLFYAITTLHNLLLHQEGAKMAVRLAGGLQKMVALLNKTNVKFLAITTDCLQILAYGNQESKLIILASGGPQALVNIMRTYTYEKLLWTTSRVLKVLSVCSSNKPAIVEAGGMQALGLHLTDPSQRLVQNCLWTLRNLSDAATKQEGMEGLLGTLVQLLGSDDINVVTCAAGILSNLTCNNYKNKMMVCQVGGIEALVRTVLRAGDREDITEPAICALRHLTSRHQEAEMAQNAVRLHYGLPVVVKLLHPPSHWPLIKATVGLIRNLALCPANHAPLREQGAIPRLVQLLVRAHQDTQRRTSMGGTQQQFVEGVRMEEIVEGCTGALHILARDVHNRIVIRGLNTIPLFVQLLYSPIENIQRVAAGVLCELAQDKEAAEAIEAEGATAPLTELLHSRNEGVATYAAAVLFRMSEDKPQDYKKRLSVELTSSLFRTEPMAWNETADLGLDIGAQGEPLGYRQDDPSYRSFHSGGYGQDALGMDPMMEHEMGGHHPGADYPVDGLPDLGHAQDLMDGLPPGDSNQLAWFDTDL
Put plainly: co-immunoprecipitation of 35S-labelled, DSP cross-linked detergent-insoluble HUVEC extracts. As for the experimental part: HUVEC were labeled to steady state with ^35Smethionine (250 μCi/mL, NEN DuPont) for 24 hours. After stimulation with 500 nM SPP for 1 hour, cells were fractionated with 0.5% TX-100. After centrifugation (15,000 g, 15 minutes), the protein complexes in detergent-insoluble fractions were cross-linked with 0.5 mM Dithiobis[succinimidyl propionate] (DSP; Pierce Chemical Co., Rockford, Ill.) (Hinck, L., J. Cell Biol. 125: 1327-1340 (1994)), and extracted with 1% TX-100-1% SDS as described above. Cell extracts were then immunoprecipitated with antibodies to VE cadherin, β-catenin, γ-catenin, or p120 Src (p120^cas, Transduction Laboratories). The immunoprecipitated complexes were then reduced by incubating in sample buffer containing 2% β-mercaptoethanol at 95° C. for 10 minutes, 10 μL dithiothreitol (1 M) was added to each gel lanes before protein separation by SDS-PAGE.

From patent US20020142982A1 (published 2002) come the findings set out here.

B1: gamma-catenin (endogenous, HUVEC) (other, human (HUVEC), UniProt P14923 1-745, looked up)
chain: MEVMNLMEQPIKVTEWQQTYTYDSGIHSGANTCVPSVSSKGIMEEDEACGRQYTLKKTTTYTQGVPPSQGDLEYQMSTTARAKRVREAMCPGVSGEDSSLLLATQVEGQATNLQRLAEPSQLLKSAIVHLINYQDDAELATRALPELTKLLNDEDPVVVTKAAMIVNQLSKKEASRRALMGSPQLVAAVVRTMQNTSDLDTARCTTSILHNLSHHREGLLAIFKSGGIPALVRMLSSPVESVLFYAITTLHNLLLYQEGAKMAVRLADGLQKMVPLLNKNNPKFLAITTDCLQLLAYGNQESKLIILANGGPQALVQIMRNYSYEKLLWTTSRVLKVLSVCPSNKPAIVEAGGMQALGKHLTSNSPRLVQNCLWTLRNLSDVATKQEGLESVLKILVNQLSVDDVNVLTCATGTLSNLTCNNSKNKTLVTQNSGVEALIHAILRAGDKDDITEPAVCALRHLTSRHPEAEMAQNSVRLNYGIPAIVKLLNQPNQWPLVKATIGLIRNLALCPANHAPLQEAAVIPRLVQLLVKAHQDAQRHVAAGTQQPYTDGVRMEEIVEGCTGALHILARDPMNRMEIFRLNTIPLFVQLLYSSVENIQRVAAGVLCELAQDKEAADAIDAEGASAPLMELLHSRNEGTATYAAAVLFRISEDKNPDYRKRVSVELTNSLFKHDPAAWEAAQSMIPINEPYGDDMDATYRPMYSSDVPLDPLEMHMDMDGDYPIDTYSDGLRPPYPTADHMLA
notes: also called γ-catenin
With B1, the binding result is “no binding”.
